Measurements taken from patent US20090203610A1, “METHODS OF TREATING OBESITY OR DIABETES USING NT-4/5” (RINAT NEUROSCIENCE CORPORATION, priority 2004, published 2009).

Experiments:
Assay type in all cases: in vivo
[1] = tested on: db/db mice; experiment: Blood triglyceride levels in db/db mice (Example 1)
Method: Test animals: 24 female 10-12 weeks old db/db mice (C57BL/Ks J Rj-db/db, Janvier, France), weighing in the target range of 40-50 g, were used in this study. […] Upon receipt at animal facilities, they were housed 4 per cage covered with filtered caps and at least a 5-day acclimation period was observed.
The mice were divided into three groups of 8 mice each (groups 1-3). Each group was treated with vehicle (PBS) subcutaneously (s.c.), 3 mg/kg Rosiglitazone orally (p.o.), or 20 mg/kg NT-4/5 subcutaneously (s.c.). From day 1 to day 5 (T1-T5) and then from day 8 to day 12 (T8-T12), the mice in groups 2 and 3 were dosed once daily for 5 consecutive days, with a volume of 10 ml/kg.
Collection of samples for analysis: One day before beginning the treatment (T0), non fasted db/db mice were weighed and blood samples were collected through the retro-orbital plexus (about 300 μL/mouse) under isoflurane anesthesia. Similarly, at day 5 (T5), day 12 (T12), day 19 (T19) and day 26 (T26), two hours after the last administration, blood samples were collected through the retro-orbital plexus under isoflurane anesthesia in non fasted mice. […] An aliquot of serum was used for measuring glucose levels, the remaining was frozen until use.
Analysis of blood samples in db/db mice: Pre- and post dose serum levels of glucose, HbA1c, cholesterol and triglycerides, insulin, and non esterified fatty acids (NEFA), as well as aspirate amino-transferase (AST) and alanine amino-transferase activities (ALT) activities, were determined at different time points, as described further herein. At each time point and for each parameter, a mean % of the effect was calculated according to the following formula: ((T final−T initial)/T initial)*100. Statistical analysis was consistent in a one-way analysis of variance followed by multiple comparisons versus the vehicle group (Dunnett's test) on final values. In case the equal variance test fails, a Kruskall-Wallis one-way analysis of variance on ranks was conducted. A difference was considered significant for p<0.05.

[2] = tested on: db/db mice; experiment: Body weight of db/db mice (Example 1); details: for body weight, mean / body weight expressed as % of baseline, mean: NT-4/5 20 mg/kg s.c., Rosiglitazone 3 mg/kg p.o.
Method: (§1) Throughout the experiment period (T1-T26), daily individual body weights as well as food intake per cage were measured.

[3] = tested on: db/db mice; experiment: Food intake of db/db mice (Example 1); details: for food intake, mean: NT-4/5 20 mg/kg s.c., Rosiglitazone 3 mg/kg p.o.
Method: as §1

[4] = tested on: db/db mice; experiment: Blood glucose levels in db/db mice (Example 1)
Method: Administration of NT-4/5 and reference substances: Rosiglitazone (3 mg/kg, Sequoia Research Products Ltd., UK), a thiazolidinedione compound for the therapy of type 2 diabetes, was used in the present experiment as a reference. Phosphate buffer saline was used as vehicle in this experiment. NT-4/5 was obtained from Genentech.
(§2) A difference was considered significant for p<0.05.

[5] = tested on: db/db mice; experiment: Serum nonesterified fatty acids (NEFA) in db/db mice (Example 1)
Method: as §2
Serum nonesterified fatty acids (NEFA) levels were determined by calorimetric method using a non esterified fatty acids kit (ref. FA 15, Randox, France).

[6] = tested on: db/db mice; experiment: Blood insulin level by ELISA in db/db mice (Example 1); design: blood insulin level at T5 / blood insulin level at T12 / blood insulin level at T19 / blood insulin level at T26: unit not given here
Method: as §2
The blood insulin level was determined by ELISA using an Insulin ELIT Plus kit (ref. INSRAT01-8N, Eurobio, France).

[7] = tested on: db/db mice; experiment: Total blood cholesterol levels in db/db mice (Example 1)
Method: as §2
The blood triglyceride level and the total blood cholesterol level were determined with a triglyceride assay kit (ref 445850, Beckman Coutler, France) and a total cholesterol kit (ref 467825, Beckman Coutler, France), respectively, using a Synchron CX4 analyzer.

[8] = tested on: db/db mice; experiment: HbA1c in db/db mice (Example 1)
Method: as §2
HbA1c levels were determined using an HbA1c kit (ref. 650262, Beckman Coulter, France) and a Synchron CX4 synchronizer. HbA1c is an indicator for blood glucose control over the last 2-3 months. The normal level of HbA1c in C57BL/6J mouse (determined by measuring 8 normal healthy C57BL/6J mice) was about 3.5%.

[9] = day 0, before treatment, NT-4/5 20 mg/kg s.c., Rosiglitazone 3 mg/kg p.o.
[10] = day 5, NT-4/5 20 mg/kg s.c., Rosiglitazone 3 mg/kg p.o.
[11] = day 5 vs day 0, NT-4/5 20 mg/kg s.c., Rosiglitazone 3 mg/kg p.o.
[12] = day 12, NT-4/5 20 mg/kg s.c., Rosiglitazone 3 mg/kg p.o.
[13] = day 12 vs day 0, NT-4/5 20 mg/kg s.c., Rosiglitazone 3 mg/kg p.o.
[14] = day 19, NT-4/5 20 mg/kg s.c., Rosiglitazone 3 mg/kg p.o.
[15] = day 19 vs day 0, NT-4/5 20 mg/kg s.c., Rosiglitazone 3 mg/kg p.o.
[16] = day 26, NT-4/5 20 mg/kg s.c., Rosiglitazone 3 mg/kg p.o.
[17] = day 26 vs day 0, NT-4/5 20 mg/kg s.c., Rosiglitazone 3 mg/kg p.o.

B1: NT-4/5: mature human neurotrophin-4/5 (SEQ ID NO:1), obtained from Genentech or produced in E. coli (protein, listed as Homo sapiens)
chain: GVSETAPASRRGELAVCDAVSGWVTDRRTAVDLRGREVEVLGEVPAAGGSPLRQYFFETRCKADNAEEGGPGAGGGGCRGVDRRHWVSECKAKQSYVRALTADAQGRVGWRWIRIDTACVCTLLSRTGRA
triglycerides levels T0 [1, 9]: 1.51 mM
triglycerides levels T5 [1, 10]: 0.73 mM
triglycerides % effect T5-T0 [1, 11]: −48.8%
triglycerides levels T12 [1, 12]: 0.84 mM
triglycerides % effect T12-T0 [1, 13]: −40.9%
triglycerides levels T19 [1, 14]: 1.07 mM
triglycerides % effect T19-T0 [1, 15]: −28.0%
triglycerides levels T26 [1, 16]: 1.13 mM
triglycerides % effect T26-T0 [1, 17]: −25.2%
blood triglyceride levels relative to normal level ([1]; normal level 1.2±0.08 mM in C57BL/6J mice): reduced to below normal level
body weight during treatment ([2]; 20 mg/kg s.c.): gradually lost weight during the treatment
body weight, mean ([2]; Day 0): 41.8 g
body weight expressed as % of baseline, mean ([2]; Day 1): 97.8 % of baseline
body weight, mean ([2]; Day 1): 40.8 g
body weight expressed as % of baseline, mean ([2]; Day 2): 95.7 % of baseline
body weight, mean ([2]; Day 2): 40.0 g
body weight expressed as % of baseline, mean ([2]; Day 3): 94.6 % of baseline
body weight, mean ([2]; Day 3): 39.5 g
body weight expressed as % of baseline, mean ([2]; Day 4): 92.9 % of baseline
body weight, mean ([2]; Day 4): 38.8 g
body weight expressed as % of baseline, mean ([2]; Day 5): 91.6 % of baseline
body weight, mean ([2]; Day 5): 38.3 g
body weight expressed as % of baseline, mean ([2]; Day 6): 88.5 % of baseline
body weight, mean ([2]; Day 6): 37.0 g
body weight expressed as % of baseline, mean ([2]; Day 7): 87.4 % of baseline
body weight, mean ([2]; Day 7): 36.5 g
body weight expressed as % of baseline, mean ([2]; Day 8): 87.3 % of baseline
body weight, mean ([2]; Day 8): 36.5 g
body weight expressed as % of baseline, mean ([2]; Day 9): 86.5 % of baseline
body weight, mean ([2]; Day 9): 36.6 g
body weight expressed as % of baseline, mean ([2]; Day 10): 85.4 % of baseline
body weight, mean ([2]; Day 10): 36.1 g
body weight expressed as % of baseline, mean ([2]; Day 11): 84.1 % of baseline
body weight, mean ([2]; Day 11): 35.6 g
body weight expressed as % of baseline, mean ([2]; Day 12): 83.3 % of baseline
body weight, mean ([2]; Day 12): 35.2 g
body weight expressed as % of baseline, mean ([2]; Day 13): 80.8 % of baseline
body weight, mean ([2]; Day 13): 34.2 g
body weight expressed as % of baseline, mean ([2]; Day 14): 79.8 % of baseline
body weight, mean ([2]; Day 14): 33.7 g
body weight expressed as % of baseline, mean ([2]; Day 15): 80.1 % of baseline
body weight, mean ([2]; Day 15): 33.9 g
body weight expressed as % of baseline, mean ([2]; Day 18): 83.1 % of baseline
body weight, mean ([2]; Day 18): 35.1 g
body weight expressed as % of baseline, mean ([2]; Day 19): 84.4 % of baseline
body weight, mean ([2]; Day 19): 35.7 g
body weight expressed as % of baseline, mean ([2]; Day 20): 84.1 % of baseline
body weight, mean ([2]; Day 20): 35.6 g
body weight expressed as % of baseline, mean ([2]; Day 21): 85.6 % of baseline
body weight, mean ([2]; Day 21): 36.2 g
body weight expressed as % of baseline, mean ([2]; Day 22): 86.4 % of baseline
body weight, mean ([2]; Day 22): 36.5 g
body weight expressed as % of baseline, mean ([2]; Day 25): 91.7 % of baseline
body weight, mean ([2]; Day 25): 38.8 g
body weight expressed as % of baseline, mean ([2]; Day 26): 93.1 % of baseline
body weight, mean ([2]; Day 26): 39.4 g
food intakes ([3]; 20 mg/kg s.c.): dramatically suppressed
food intake, mean ([3]; Day 1): 104.1 g/kg/day
food intake, mean ([3]; Day 2): 56.9 g/kg/day
food intake, mean ([3]; Day 3): 90.7 g/kg/day
food intake, mean ([3]; Day 4): 68.6 g/kg/day
food intake, mean ([3]; Day 5): 44.1 g/kg/day
food intake, mean ([3]; Day 6): 38.5 g/kg/day
food intake, mean ([3]; Day 7): 43.1 g/kg/day
food intake, mean ([3]; Day 8): 63.4 g/kg/day
food intake, mean ([3]; Day 9): 45.6 g/kg/day
food intake, mean ([3]; Day 10): 51.8 g/kg/day
food intake, mean ([3]; Day 11): 56.2 g/kg/day
food intake, mean ([3]; Day 12): 62.6 g/kg/day
food intake, mean ([3]; Day 13): 42.3 g/kg/day
food intake, mean ([3]; Day 14): 76.3 g/kg/day
food intake, mean ([3]; Day 15): 69.9 g/kg/day
food intake, mean ([3]; Day 19): 78.0 g/kg/day
food intake, mean ([3]; Day 20): 79.1 g/kg/day
food intake, mean ([3]; Day 21): 123.9 g/kg/day
food intake, mean ([3]; Day 22): 114.4 g/kg/day
food intake, mean ([3]; Day 25): 120.6 g/kg/day
food intake, mean ([3]; Day 26): 116.3 g/kg/day
blood glucose levels T0 [4, 9]: 36.95 mM
blood glucose levels T5 [4, 10]: 15.78 mM
blood glucose % effect T5-T0 [4, 11]: −56.4%
blood glucose levels T12 [4, 12]: 13.56 mM
blood glucose % effect T12-T0 [4, 13]: −62.6%
blood glucose levels T19 ([4]; day 19 (dosing stopped day 12), NT-4/5 20 mg/kg s.c., Rosiglitazone 3 mg/kg p.o.): 12.65 mM
blood glucose % effect T19-T0 [4, 15]: −65.2%
blood glucose levels T26 ([4]; day 26 (dosing stopped day 12), NT-4/5 20 mg/kg s.c., Rosiglitazone 3 mg/kg p.o.): 22.50 mM
blood glucose % effect T26-T0 [4, 17]: −37.9%
level of blood glucose lower than that of vehicle treated mice ([4]; throughout the rest of the study, 20 mg/kg s.c.): at least 50%
effect on blood level of NEFA ([5]; 20 mg/kg s.c.): did not seem to have affected the blood level of NEFA significantly
NEFA levels T0 [5, 9]: 0.788 mM
NEFA levels T5 [5, 10]: 0.780 mM
NEFA % effect T5-T0 [5, 11]: −0.1%
NEFA levels T12 [5, 12]: 0.679 mM
NEFA % effect T12-T0 [5, 13]: −8.5%
NEFA levels T19 [5, 14]: 0.521 mM
NEFA % effect T19-T0 [5, 15]: −30.4%
NEFA levels T26 [5, 16]: 0.411 mM
NEFA % effect T26-T0 [5, 17]: −44.5%
blood insulin level at T5 ([6]; T5): 1.84
blood insulin level at T12 ([6]; T12): 0.91
blood insulin level at T19 ([6]; T19): 7.6
blood insulin level at T26 ([6]; T26): 11.58
insulin levels T0 [6, 9]: 7.04 nM
insulin levels T5 [6, 10]: 1.84 nM
insulin % effect T5-T0 [6, 11]: −72.0%
insulin levels T12 [6, 12]: 0.91 nM
insulin % effect T12-T0 [6, 13]: −84.5%
insulin levels T19 [6, 14]: 7.60 nM
insulin % effect T19-T0 [6, 15]: 17.1%
insulin levels T26 [6, 16]: 11.58 nM
insulin % effect T26-T0 [6, 17]: 73.1%
insulin level relative to normal level ([6]; normal about 0.118±0.010 nM): not reduced to normal level
blood cholesterol level decrease ([7]; 20 mg/kg s.c., not statistically significant): 20-30%
cholesterol levels T0 [7, 9]: 3.42 mM
cholesterol levels T5 [7, 10]: 2.85 mM
cholesterol % effect T5-T0 [7, 11]: −16.4%
cholesterol levels T12 [7, 12]: 2.66 mM
cholesterol % effect T12-T0 [7, 13]: −23.7%
cholesterol levels T19 [7, 14]: 2.40 mM
cholesterol % effect T19-T0 [7, 15]: −31.7%
cholesterol levels T26 [7, 16]: 2.67 mM
cholesterol % effect T26-T0 [7, 17]: −23.5%
HbA1c level decrease at T26 ([8]; T26 as compared to T0): 30.4%
HbA1c T0 [8, 9]: 5.81%
HbA1c T12 [8, 12]: 5.82%
HbA1c % effect T12-T0 [8, 13]: −0.2%
HbA1c T26 [8, 16]: 4.08%
HbA1c % effect T26-T0 [8, 17]: −30.4%
